B1: 18.2-A2: recombinant monoclonal CLDN18.2 antibody, VH SEQ ID NO: 11, VL SEQ ID NO: 16 (antibody, V domains shown)
VH: EVQLVQSGAEVKKPGASVKVSCKASGYTFTSFWVGWVRQAPGQGLEWIGNVSPSDSYTNYNQKFKDRATLTVDKSTSTAYMELSSLRSEDTAVYYCTRLSSGNSFDYWGQGTLVTVSS
VL: DIVMTQSPDSLSVSLGERATINCKSSQSVLNSGNQKNYLTWYQQKPGQPPKLLIYWSSTKQSGVPDRFSGSGSGTDFTLTISSLQAEDVAVYYCQNAFSFPFTFGQGTKVEIK
modifications: 18.2-A2 VH; 18.2-A2 VL
B2: 18.2-A3: recombinant monoclonal CLDN18.2 antibody, VH SEQ ID NO: 21, VL SEQ ID NO: 26 (antibody, V domains shown)
VH: EVQLVQSGAEVKKPGASVKVSCKASGYTFTSYWLNWVRQAPGQGLEWIGSMYPSDSYTNYNQKFKDRATLTVDKSTSTAYMELSSLRSEDTAVYYCTRFSRGNSFDYWGQGTLVTVSS
VL: DIVMTQSPDSLTVALGERATINCKSSQSLLESGNQKNYLTWYQQKPGQPPKLLIYWSWAKNSGVPDRFSGSGSGTDFTLTISSLQAEDVAVYYCQNAYAFPFTFGQGTKVEIK
modifications: 18.2-A3 VH; 18.2-A3 VL
B3: 18.2-A6: recombinant monoclonal CLDN18.2 antibody, VH SEQ ID NO: 55, VL SEQ ID NO: 60 (antibody, V domains shown)
VH: EVQLVQSGAEVKKPGASVKVSCKASGYTFTSYWLGWVRQAPGQGLEWIGIIYPSDSYTNYNQKFKDRATLTVDKSTSTAYMELSSLRSEDTAVYYCTRFWRGNSFDYWGQGTLVTVSS
VL: DIVMTQSPDSLTIGLGERATINCKSSQSLLNSGNQKNYLTWYQQKPGQPPKLLIYWAAGKESGVPDRFSGSGSGTDFTLTISSLQAEDVAVYYCQNGYSHPFTFGQGTKVEIK
modifications: 18.2-A6 VH; 18.2-A6 VL
B4: 18.2-A4: recombinant monoclonal CLDN18.2 antibody, VH SEQ ID NO: 31, VL SEQ ID NO: 36 (antibody, V domains shown)
VH: EVQLVQSGAEVKKPGASVKVSCKASGYTFTSFWISWVRQAPGQGLEWIGNILPSDSYTNYNQKFKDRATLTVDKSTSTAYMELSSLRSEDTAVYYCTRYWRGNSFDYWGQGTLVTVSS
VL: DIVMTQSPDSLALALGERATINCKSSQSIINSGNQKNYLTWYQQKPGQPPKLLIYWGGTRHSGVPDRFSGSGSGTDFTLTISSLQAEDVAVYYCQNGYYSPFTFGQGTKVEIK
modifications: 18.2-A4 VH; 18.2-A4 VL
B5: 18.2-A5: recombinant monoclonal CLDN18.2 antibody, VH SEQ ID NO: 41, VL SEQ ID NO: 46 (antibody, V domains shown)
VH: EVQLVQSGAEVKKPGASVKVSCKASGYTFTSSWVGWVRQAPGQGLEWIGNSYPSDSYTNYNQKFKDRATLTVDKSTSTAYMELSSLRSEDTAVYYCTRLGRGNSFDYWGQGTLVTVSS
VL: DIVMTQSPDSLTVALGERATINCKSSQSLIHSGNQKNYLTWYQQKPGQPPKLLIYWGLSKNSGVPDRFSGSGSGTDFTLTISSLQAEDVAVYYCQNSIYYPFTFGQGTKVEIK
modifications: 18.2-A5 VH; 18.2-A5 VL

How the values were obtained:
[1] = tested on: SNU601 cells expressing CLDN18.2; experiment: Endocytosis of antibody after binding to SNU601 cells stably expressing CLDN18.2; type: cell-based; conditions: 10 μg/ml, 4 h
Experimental: It has been reported that the binding of some antibodies to cell surface antigens can cause endocytosis of antigen and antibody complexes, thereby reducing the expression level of the cell surface antigens and accelerating antibody metabolism in vivo (Schrama D et al., 2006, Nat Rev Drug Discov). In this example, the ability of antibodies 18.2-A1, 18.2-A3, 18.2-A4 and 18.2-A6 to be endocytosed by cells was tested in SNU601 cells stably expressing CLDN18.2. […] Subsequently, they were washed at 4° C. and stained with PE-labeled anti-human IgG antibody. After fixation with 4% formalin, antibody binding on the cell surface was tested by flow cytometry.

[2] = target: T1, CLDN18.2 (CT26-CLDN18.2 cells) (Homo sapiens, UniProt P56856); experiment: Flow cytometry binding of recombinant antibodies to CT26-CLDN18.2 cells; conditions: 4° C. 1 hour
T1 construct: expressed in transfected cells; host or cells: CT26 cells (mouse), lentiviral transduction, puromycin selection
Experimental: Binding activities of the recombinant monoclonal antibodies to CLDN18.2 were determined. Specifically, well-grown cell lines stably expressing CT26-CLDN18.2 were taken. The cells were washed with PBS, mixed with the fold-diluted antibody and incubated at 4° C. for 1 hour. The cells were washed once with flow cytometry buffer, PE-labeled anti-human IgG antibody was added, and incubated at 4° C. for 30 minutes. The supernatant was removed by centrifugation, and after the cells were washed with flow cytometry buffer, the fluorescence intensity on the surface of the cells was tested by flow cytometry. The relative binding activity of each antibody was calculated using the average fluorescence intensity.
The binding activity of the defucosylated antibodies 18.2-A1F, 18.2-A3F and 18.2-A4F to CLDN18.2 as compared to the binding activity of 18.2-A1, 18.2-A3 and 18.2-A4 to CLDN18.2 was tested by flow cytometry, the method of which is as described in Example 5, and the experimental results are shown in FIG. 7.

[3] = tested on: control CT26 cell line; experiment: Flow cytometry binding to control CT26 cell line; conditions: results not shown
[4] = target: T2, CLDN18.2 (CLDN18.2-Flag 293t cells) (Homo sapiens, UniProt P56856); experiment: Binding specificity, 293t cells expressing CLDN18.2-Flag, flow cytometry; conditions: 10 μg/ml antibody, 4° C. 1 hour
T2 construct: expressed in transfected cells; host or cells: 293t cells, transient transfection
From the text: (§1) Human Claudin18 proteins include two homologues, i.e., CLDN18.1 and CLDN18.2, which share exons other than exon 1, and the exon 1 sequences of CLDN18.1 and CLDN18.2 are highly similar with only 8 different amino acids in the first extracellular region. The exon 1 of CLDN18.1 and the exon 1 of CLDN18.2 are specifically expressed in different tissues driven by different promoters. Among them, CLDN18.1 is specifically expressed in lung epithelial cells, while CLDN18.2 is specifically expressed in gastric epithelial cells. To identify the specificity of the screened CLDN18.2 antibodies, binding of the antibodies to CLDN18.1 and CLDN18.2 was tested.
(§2) Specifically, well-grown 293t cells were taken to transiently express flag-tagged CLDN18.1 (CLDN18.1-Flag) or CLDN18.2 (CLDN18.2-Flag). 48 hours after transfection, the cells were digested with trypsin. After washed with flow cytometry buffer, the cells were mixed with 10 μg/ml of isotype control antibody or one of the above five CLDN18.2 antibodies in 200 μl of flow cytometry buffer, and were incubated at 4° C. for 1 hour. Subsequently, the cells were washed once with flow cytometry buffer, PE-labeled anti-human IgG antibody was added, and incubated at 4° C. for 30 min. The supernatant was removed by centrifugation, wash was performed twice with flow cytometry buffer, and the cells were fixed in a fix solution containing 1% paraformaldehyde and 0.5% triton-X100 and the cell membrane was permeabilized. Subsequently, the cells were incubated with APC-labeled anti-flag antibody for 30 min and tested by flow cytometry.

[5] = target: T3, CLDN18.1 (CLDN18.1-Flag 293t cells) (Homo sapiens, UniProt P56856); experiment: Binding specificity, 293t cells expressing CLDN18.1-Flag, flow cytometry; conditions: 10 μg/ml antibody, 4° C. 1 hour
T3 construct: expressed in transfected cells; host or cells: 293t cells, transient transfection
From the text: as §1, §2

[6] = tested on: human FcγRIIIa (V158) on FcγRIIIa-Jurkat cells; experiment: Flow cytometry binding to FcγRIIIa-Jurkat cells
From the text: We next further tested the binding activity of the CLDN18.2 antibodies and their defucosylated forms to FcγRIIIa expressed on the cell surface. Specifically, the human FcγRIIIa (V158, high FC binding subtype) gene was cloned into a mammalian cell expression vector carrying a puromycin screening marker and transfected into a Jurkat cell line. A cell line stably expressing FcγRIIIa (FcγRIIIa-Jurkat) was screened with puromycin. In addition, NK92MI is a human NK cell line that naturally expresses the FcγRIIIa receptor (F158, low FC binding subtype). The binding ability of the CLDN18.2 antibodies and their defucosylated forms to FcγRIIIa expressed on the surface of FcγRIIIa-jurkat cells and NK92MI cells was tested by flow cytometry. The specific flow cytometry assay is described with reference to Example 6.

[7] = tested on: untransfected Jurkat cells; experiment: Flow cytometry binding to untransfected Jurkat cells; conditions: results not shown

Row | Molecule | binding to SNU601 cells expressing CLDN18.2 under 4° C. incubation [1] | antibody staining/binding on the cell surface under 37° C. incubation [1] | binding to CT26 cell line expressing CLDN18.2 [2] | binding to control CT26 cell line [3] | binding to CLDN18.2-flag transfected positive 293t cells [4] | binding to CLDN18.1-positive cells [5] | endocytosis by cells under 37° C. incubation [1] | binding to FcγRIIIa-jurkat cells [6] | binding to untransfected Jurkat cells [7]
1 | IMAB362: CLDN18.2 specific antibody (IMAB362, Ganymed) [reference compound] | bound well | decreased significantly | – | – | – | – | – | – | –
2 | B1 | – | – | able to bind well | did not bind | able to bind well | none of the six antibodies bound | – | – | –
3 | B2 | bound well | still bound well | able to bind well | did not bind | able to bind well | none of the six antibodies bound | did not undergo significant endocytosis | – | –
4 | B3 | bound well | still bound well | able to bind well | did not bind | able to bind well | none of the six antibodies bound | did not undergo significant endocytosis | – | –
5 | B4 | bound well | still bound well | able to bind well | did not bind | able to bind well | none of the six antibodies bound | did not undergo significant endocytosis | able to bind | not able to bind
6 | B5 | – | – | able to bind well | did not bind | able to bind well | none of the six antibodies bound | – | – | –

Source: patent US12662531B2, “CLDN18.2 antibody and use thereof” (FUTUREGEN BIOPHARMACEUTICAL (BEIJING) CO., LTD., priority 2019, dated 2026)
